Reference: patent US20220002427A1, “BISPECIFIC ANTIBODY AGAINST BCMA AND CD3 AND AN IMMUNOLOGICAL DRUG FOR COMBINED USE IN TREATING MULTIPLE MYELOMA” (ENGMAB SARL, priority 2016, published 2022)
Changes are numbered by the printed parent chain. One block for each molecule: values may come before it.

Tests used:
huBCMA on HEK cells = molecular target: T1, huBCMA on HEK cells (Homo sapiens, UniProt Q02223); assay: Binding of IgG variants on HEK-huBCMA cells (flow cytometry)
T1 construct: expressed in transfected cells; host or cells: HEK cells (HEK-huBCMA)
T1 sequence (Q02223 1-184): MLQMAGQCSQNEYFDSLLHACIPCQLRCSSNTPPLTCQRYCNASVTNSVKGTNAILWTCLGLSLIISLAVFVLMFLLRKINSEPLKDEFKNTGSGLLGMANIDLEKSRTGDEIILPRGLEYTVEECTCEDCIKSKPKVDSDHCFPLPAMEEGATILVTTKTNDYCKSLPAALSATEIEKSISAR
Text: FIGS. 18A-18B. FIG. 18A: Binding affinity of BCMA antibodies on HEK-huBCMA cells as measured by flow cytometry. The anti-BCMA antibodies were used as first antibody then a secondary PE-labeled anti-human Fc was used as detection antibody. […] FIG. 18B: Binding affinity of BCMA antibodies on HEK-huBCMA cells as measured by flow cytometry. The anti-BCMA antibodies were used as first antibody then a secondary PE-labeled anti-human Fc was used as detection antibody.
Due to their experience the inventors selected out of these 70 clones further 27 clones based on their binding properties to huBCMA, cynoBCMA, murineBCMA, and ratio, measured in different assays. Out of these clones 4VH and 9VL clones were selected, which results in […]. Binding affinity on HEK-huBCMA cells was measured (FIG. 18 and Table 2E). […] However Mab21, Mab 22, Mab27, Mab33, Mab39, and Mab42 were selected due to their overall properties, like affinity for huBCMA, cynoBCMA, binding as bispecific antibody to BCMA-positive multiple myeloma cell lines H929, L363 and RPMI-8226 by flow cytometry, killing potency of myeloma cells H929, L363 and RPMI-8226, of viable myeloma plasma cells from patient bone marrow aspirates, and pharmacokinetics (PK)) and pharmacodynamics (killing of BCMA positive cells) data in cynomolgus monkeys.

huBCMA Fc(kih) = molecular target: T2, huBCMA Fc(kih) (Homo sapiens, UniProt Q02223); assay: Biacore T200 SPR, anti-BCMA antibodies to recombinant human BCMA Fc(kih); format: binding; conditions: analyte huBCMA Fc(kih), 1:1 Langmuir, 25° C.
T2 construct: The extracellular domains of human and cynomolgus BCMA comprised methionine 4 to asparagine 53, and methionine 4 to asparagine 52, respectively; made in house; host or cells: HEK EBNA cells
T2 sequence (Q02223 4-53): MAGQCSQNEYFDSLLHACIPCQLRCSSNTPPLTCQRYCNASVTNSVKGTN
Method: (§1) Assessment of binding of anti-BCMA antibodies to recombinant BCMA by surface plasmon resonance (SPR) as follow. All SPR experiments were performed on a Biacore T200 at 25° C. with HBS-EP as running buffer (0.01 M HEPES pH 7.4, 0.15 M NaCl, 3 mM EDTA, 0.005% Surfactant P20, Biacore, Freiburg/Germany). The avidity of the interaction between anti-BCMA antibodies and recombinant BCMA Fc(kih) (human and cynomolgus) was determined. Biotinylated recombinant human and cynomolgus BCMA Fc(kih) were directly coupled on a SA chip following instructions (Biacore, Freiburg/Germany). The immobilization level ranged from 200 to 700 RU. The anti-BCMA antibodies were passed at a 2-fold concentration range (1.95 to 500 nM) with a flow of 30 μL/minutes through the flow cells over 120 seconds. The dissociation was monitored for 180 seconds. Bulk refractive index differences were corrected for by subtracting the response obtained on the reference flow cell. Here, the anti-BCMA antibodies were flown over an empty surface previously activated and deactivated as described in the standard amine coupling kit. Apparent kinetic constants were derived using the Biacore T200 Evaluation Software (vAA, Biacore AB, Uppsala/Sweden), to fit rate equations for 1:1 Langmuir binding by numerical integration, despite the bivalency of the interaction for comparison purposes. The affinity of the interaction between anti-BCMA antibodies and recombinant human BCMA Fc(kih) was also determined. Anti-human Fab antibody (GE Healthcare) was directly coupled on a CMS chip at pH 5.0 using the standard amine coupling kit (Biacore, Freiburg/Germany). The immobilization level was about 6500 RU. Anti-BCMA antibody was captured for 90 seconds at 25 nM. Recombinant human BCMA Fc(kih) was passed at a 4-fold concentration range (1.95 to 500 nM) with a flow of 30 μL/minutes through the flow cells over 120 seconds. The dissociation was monitored for 120 seconds. Bulk refractive index differences were corrected for by subtracting the response obtained on reference flow cell. Here, recombinant BCMA was flown over a surface with immobilized anti-human Fab antibody but on which HBS-EP has been injected rather than anti-BCMA antibody. Kinetic constants were derived using the Biacore T100 Evaluation Software (vAA, Biacore AB, Uppsala/Sweden), to fit rate equations for 1:1 Langmuir binding by numerical integration (Table 4).

cynoBCMA Fc(kih) = assay: Biacore T200 SPR, anti-BCMA antibodies to recombinant cynomolgus BCMA Fc(kih); cyno/hu affinity gap; format: binding; conditions: analyte cynoBCMA Fc(kih), 1:1 Langmuir, 25° C.
Method: as §1, with “Here, recombinant BCMA was flown over a surface with immobilized anti-human Fab antibody but on which HBS-EP has been injected rather than anti-BCMA antibody.” left out
Based on the affinity values described in Example 2, the affinity of anti-BCMA antibodies to human BCMA vs. cynomolgus BCMA were compared and cyno/hu affinity ratio (gap) values were calculated (Table 5). Affinity cyno/hu gap was calculated as affinity of antibody to cynomolgus BCMA divided by affinity to human BCMA and means that BCMA antibody binds to human BCMA with x fold binding affinity than to cynomolgus BCMA, where x=cyno/hu gap value.

- binding to huBCMA on HEK cells compared with Mab 83A10 (huBCMA on HEK cells): not significantly better
- Koff (huBCMA Fc(kih)): 4.39e-05 s⁻¹
- Kon (huBCMA Fc(kih)): 851000 M⁻¹ s⁻¹
B1: Mab 21: anti-BCMA antibody, VH SEQ ID NO:10, VL SEQ ID NO:12 (antibody, V domains shown)
VH: EVQLLESGGGLVQPGGSLRLSCAASGFTFSDNAMGWVRQAPGKGLEWVSAISGPGSSTYYADSVKGRFTISRDNSKNTLYLQMNSLRAEDTAVYYCAKVLGWFDYWGQGTLVTVSS
VL: EIVLTQSPGTLSLSPGERATLSCRASQSVSEYYLAWYQQKPGQAPRLLIEHASTRATGIPDRFSGSGSGTDFTLTISRLEPEDFAVYYCQQYGYPPDFTFGQGTKVEIK
modifications: Variable region VH; Variable region VL
- Koff (cynoBCMA Fc(kih)): 0.000235 s⁻¹
- Kon (cynoBCMA Fc(kih)): 491000 M⁻¹ s⁻¹

- binding to huBCMA on HEK cells compared with Mab 83A10 (huBCMA on HEK cells): not significantly better
- Koff (huBCMA Fc(kih)): 5.93e-05 s⁻¹
- Kon (huBCMA Fc(kih)): 359000 M⁻¹ s⁻¹
B2: Mab 27: anti-BCMA antibody, VH SEQ ID NO:38, VL SEQ ID NO:12 (antibody, V domains shown)
VH: EVQLLESGGGLVQPGGSLRLSCAASGFTFSSAPMGWVRQAPGKGLEWVSAISYIGHTYYADSVKGRFTISRDNSKNTLYLQMNSLRAEDTAVYYCAKVLGWFDYWGQGTLVTVSS
VL: B1 VL
modifications: Mab27 VH; Variable region VL
- Koff (cynoBCMA Fc(kih)): 0.000455 s⁻¹
- Kon (cynoBCMA Fc(kih)): 216000 M⁻¹ s⁻¹

- binding to huBCMA on HEK cells compared with Mab 83A10 (huBCMA on HEK cells): not significantly better
- Koff (huBCMA Fc(kih)): 5.15e-05 s⁻¹
- Kon (huBCMA Fc(kih)): 814000 M⁻¹ s⁻¹
B3: Mab 22: anti-BCMA antibody, VH SEQ ID NO:10, VL SEQ ID NO:13 (antibody, V domains shown)
VH: B1 VH
VL: B1 VL with E31S, E50S, H51G, S53G, T54S
modifications: Variable region VH; Variable region VL Mab22
- Koff (cynoBCMA Fc(kih)): 0.000442 s⁻¹
- Kon (cynoBCMA Fc(kih)): 454000 M⁻¹ s⁻¹

- binding to huBCMA on HEK cells compared with Mab 83A10 (huBCMA on HEK cells): not significantly better
- Koff (huBCMA Fc(kih)): 5.58e-05 s⁻¹
- Kon (huBCMA Fc(kih)): 361000 M⁻¹ s⁻¹
B4: Mab 39: anti-BCMA antibody, VH SEQ ID NO:40, VL SEQ ID NO:12 (antibody, V domains shown)
VH: B1 VH with S30T, D31Q, G53P, P54T, S56F
VL: B1 VL
modifications: Mab39 VH; Variable region VL
- Koff (cynoBCMA Fc(kih)): 0.000467 s⁻¹
- Kon (cynoBCMA Fc(kih)): 215000 M⁻¹ s⁻¹

- binding to huBCMA on HEK cells compared with Mab 83A10 (huBCMA on HEK cells): not significantly better
- Koff (huBCMA Fc(kih)): 0.000298 s⁻¹
- Kon (huBCMA Fc(kih)): 803000 M⁻¹ s⁻¹
B5: Mab 42: anti-BCMA antibody, VH SEQ ID NO:10, VL SEQ ID NO:14 (antibody, V domains shown)
VH: B1 VH
VL: B1 VL with E31D, Y32E, A35S, E50H, H51S, T75A
modifications: Variable region VH; Variable region VL Mab42
- Koff (cynoBCMA Fc(kih)): 0.000453 s⁻¹
- Kon (cynoBCMA Fc(kih)): 707000 M⁻¹ s⁻¹

- Koff (huBCMA Fc(kih)): 3.55e-05 s⁻¹
- Kon (huBCMA Fc(kih)): 200000 M⁻¹ s⁻¹
B6: Mab 33: anti-BCMA antibody, VH SEQ ID NO:39, VL SEQ ID NO:12 (antibody, V domains shown)
VH: B1 VH with S30Y, D31T, S52N, G53R, P54F, S56G
VL: B1 VL
modifications: Mab33 VH; Variable region VL
- Koff (cynoBCMA Fc(kih)): 9.76e-05 s⁻¹
- Kon (cynoBCMA Fc(kih)): 132000 M⁻¹ s⁻¹
